Assay results as given in publication PMC8301015, “Atypical Bacilliredoxin AbxC Plays a Role in Responding to Oxidative Stress in Radiation-Resistant Bacterium Deinococcus radiodurans” (Antioxidants, 2021).

Target: the molecule itself
Assay: non-reducing SDS-PAGE; purified AbxC 0.5 mg/mL in PBS, 15 min, without or with increasing concentrations of H2O2 (or oxidised with diamide); 12% gel, non-reducing; disulfide-linked dimer against monomer

B1: AbxC (atypical BrxC; DR_1832), C-terminal His x 6 tag (enzyme, Deinococcus radiodurans, UniProt Q9RTD3 1-211, looked up)
chain: MTQGQDQVLSPLTTPDEVDQFLKDYPLAAVFKAGTCHKTMQGFGVLETFLQRYELPVGFIRVVDWRPASNHVAELTGLTHHSPQFILFKDGQAQYEVNNWDITPEALGPVFEQQVPQRSGAAQVDAGDSVEPYRQLMQAYLAGQLSDWAFQDQYVTMFRDDASLRSQREFELLSRLFGDPDAYHGGLHQLGAPQDRGDLKARVQSVLDQLG
notes: AbxC (DR_1832), Deinococcus radiodurans R1; monomer 23.7 kDa; single cysteine Cys36; also called putative homolog of BrxC (YtxJ); source: E. coli BL21-CodonPlus (DE3)-RP, purified (Ni-NTA, Superdex 75HR)
stoichiometry N: 2
